Results published in patent publication US20260250398A1.
Substitutions are numbered along the chain they refer to.

B1: CM0011 (FZD Diabody-Fc-LRP Diabody; paratopes 5019; 2539, 2542) (bispecific antibody)
chain 1: MNLLLILTFVAAAVAEFEVQLVESGGGLVQPGGSLRLSCAASGFNIGSSSIHWVRQAPGKGLEWVASIYSAFASTSYADSVKGRFTISADTSKNTAYLQMNSLRAEDTAVYYCARYHFPFGFALDYWGQGTLVTVSSGGGGSDIQMTQSPSSLSASVGDRVTITCRASQSVSSAVAWYQQKPGKAPKLLIYSASSLYSGVPSRFSGSRSGTDFTLTISSLQPEDFATYYCQQGVYLFTFGQGTKVEIKLEDKTHTKVEPKSSDKTHNCPPCPAPELLGGPSVFLFPPKPKDTLMISRTPEVTCVVVDVSHEDPEVKFNWYVDGVEVHNAKTKPREEQYNSTYRVVSVLTVLHQDWLNGKEYKCKVSNKALPAPIEKTISKAKGQPREPQVYTLPPIRELMTSNQVSLSCAVKGFYPSDIAVEWESNGQPENNYKTTPPVLDSDGSFFLVSKLTVDKSRWQQGNVFSCSVMHEALHNHYTQKSLSLSPGKSGSETPGTSESATPESGGGEVQLVESGGGLVQPGGSLRLSCAASGFNISSYYIHWVRQAPGKGLEWVASIYSSYGYTSYADSVKGRFTISADTSKNTAYLQMNSLRAEDTAVYYCARTVRGSKKPYFSGWAMDYWGQGTLVTVSSGGGGSDIQMTQSPSSLSASVGDRVTITCRASQSVSSAVAWYQQKPGKAPKLLIYSASSLYSGVPSRFSGSRSGTDFTLTISSLQPEDFATYYCQQYSWGPFTFGQGTKVEIK
chain 2: MNLLLILTFVAAAVAEFEVQLVESGGGLVQPGGSLRLSCAASGFNIGSSSIHWVRQAPGKGLEWVASIYSAFASTSYADSVKGRFTISADTSKNTAYLQMNSLRAEDTAVYYCARYHFPFGFALDYWGQGTLVTVSSGGGGSDIQMTQSPSSLSASVGDRVTITCRASQSVSSAVAWYQQKPGKAPKLLIYSASSLYSGVPSRFSGSRSGTDFTLTISSLQPEDFATYYCQQGVYLFTFGQGTKVEIKLEDKTHTKVEPKTSDKTHTCPPCPAPELLGGPSVFLFPPKPKDTLMISRTPEVTCVVVDVSHEDPEVKFNWYVDGVEVHNAKTKPREEQYNSTYRVVSVLTVLHQDWLNGKEYKCKVSNKALPAPIEKTISKAKGQPREPMVFDLPPSREEMTKNQVSLWCMVKGFYPSDIAVEWESNGQPENNYKTTPPVLDSDGSFFLYSKLTVDKSRWQQGNVFSCSVMHEALHNHYTQKSLSLSPGKSGSETPGTSESATPESGGGEVQLVESGGGLVQPGGSLRLSCAASGFNISYSSIHWVRQAPGKGLEWVAYISSYYGYTYYADSVKGRFTISADTSKNTAYLQMNSLRAEDTAVYYCARAHYFPWAGAMDYWGQGTLVTVSSGGGGSDIQMTQSPSSLSASVGDRVTITCRASQSVSSAVAWYQQKPGKAPKLLIYSASSLYSGVPSRFSGSRSGTDFTLTISSLQPEDFATYYCQQYYWPITFGQGTKVEIK
B2: CM0126 (FZD Diabody-Fc-LRP Diabody; paratopes 5016; 2539, 2542) (bispecific antibody)
chain 1: B1 chain 1 with G47H, S67A, I68T, A71S, A73G, T75I, S76T, F118H, F122Y
chain 2: B1 chain 2 with G47H, S67A, I68T, A71S, A73G, T75I, S76T, F118H, F122Y
B3: CT0001 (FZD IgG-LRP Diabody; paratopes 5016; 2539, 2542) (bispecific antibody)
heavy 1: EVQLVESGGGLVQPGGSLRLSCAASGFNIHSSSIHWVRQAPGKGLEWVAATYSSFGSITYADSVKGRFTISADTSKNTAYLQMNSLRAEDTAVYYCARYHHPFGYALDYWGQGTLVTVSSASTKGPSVFPLAPSSKSTSGGTAALGCLVKDYFPEPVTVSWNSGALTSGVHTFPAVLQSSGLYSLSSVVTVPSSSLGTQTYICNVNHKPSNTKVDKKVEPKSCDKTHTCPPCPAPELLGGPSVFLFPPKPKDTLMISRTPEVTCVVVDVSHEDPEVKFNWYVDGVEVHNAKTKPREEQYNSTYRVVSVLTVLHQDWLNGKEYKCKVSNKALPAPIEKTISKAKGQPREPQVYTLPPIRELMTSNQVSLSCAVKGFYPSDIAVEWESNGQPENNYKTTPPVLDSDGSFFLVSKLTVDKSRWQQGNVFSCSVMHEALHNHYTQKSLSLSPGKSGSETPGTSESATPESGGGEVQLVESGGGLVQPGGSLRLSCAASGFNISSYYIHWVRQAPGKGLEWVASIYSSYGYTSYADSVKGRFTISADTSKNTAYLQMNSLRAEDTAVYYCARTVRGSKKPYFSGWAMDYWGQGTLVTVSSGGGGSDIQMTQSPSSLSASVGDRVTITCRASQSVSSAVAWYQQKPGKAPKLLIYSASSLYSGVPSRFSGSRSGTDFTLTISSLQPEDFATYYCQQYSWGPFTFGQGTKVEIK
heavy 2: EVQLVESGGGLVQPGGSLRLSCAASGFNIHSSSIHWVRQAPGKGLEWVAATYSSFGSITYADSVKGRFTISADTSKNTAYLQMNSLRAEDTAVYYCARYHHPFGYALDYWGQGTLVTVSSASTKGPSVFPLAPSSKSTSGGTAALGCLVKDYFPEPVTVSWNSGALTSGVHTFPAVLQSSGLYSLSSVVTVPSSSLGTQTYICNVNHKPSNTKVDKKVEPKSCDKTHTCPPCPAPELLGGPSVFLFPPKPKDTLMISRTPEVTCVVVDVSHEDPEVKFNWYVDGVEVHNAKTKPREEQYNSTYRVVSVLTVLHQDWLNGKEYKCKVSNKALPAPIEKTISKAKGQPREPMVFDLPPSREEMTKNQVSLWCMVKGFYPSDIAVEWESNGQPENNYKTTPPVLDSDGSFFLYSKLTVDKSRWQQGNVFSCSVMHEALHNHYTQKSLSLSPGKSGSETPGTSESATPESGGGEVQLVESGGGLVQPGGSLRLSCAASGFNISYSSIHWVRQAPGKGLEWVAYISSYYGYTYYADSVKGRFTISADTSKNTAYLQMNSLRAEDTAVYYCARAHYFPWAGAMDYWGQGTLVTVSSGGGGSDIQMTQSPSSLSASVGDRVTITCRASQSVSSAVAWYQQKPGKAPKLLIYSASSLYSGVPSRFSGSRSGTDFTLTISSLQPEDFATYYCQQYYWPITFGQGTKVEIK
light: DIQMTQSPSSLSASVGDRVTITCRASQSVSSAVAWYQQKPGKAPKLLIYSASSLYSGVPSRFSGSRSGTDFTLTISSLQPEDFATYYCQQGVYLFTFGQGTKVEIKRTVAAPSVFIFPPSDEQLKSGTASVVCLLNNFYPREAKVQWKVDNALQSGNSQESVTEQDSKDSTYSLSSTLTLSKADYEKHKVYACEVTHQGLSSPVTKSFNRGEC
B4: ANT-1 (LRP Diabody-Fc-FZD Fab; paratopes 2540, 2542; 5016) (bispecific antibody)
heavy 1: MNLLLILTFVAAAVAEFEVQLVESGGGLVQPGGSLRLSCAASGFNISSYYIHWVRQAPGKGLEWVASIYSSYGYTSYADSVKGRFTISADTSKNTAYLQMNSLRAEDTAVYYCARTVRGSKKPYFSGWAMDYWGQGTLVTVSSGGGGSDIQMTQSPSSLSASVGDRVTITCRASQSVSSAVAWYQQKPGKAPKLLIYSASSLYSGVPSRFSGSRSGTDFTLTISSLQPEDFATYYCQQYYFLITFGQGTKVEIKLEDKTHTKVEPKSSDKTHNCPPCPAPELLGGPSVFLFPPKPKDTLMISRTPEVTCVVVDVSHEDPEVKFNWYVDGVEVHNAKTKPREEQYNSTYRVVSVLTVLHQDWLNGKEYKCKVSNKALPAPIEKTISKAKGQPREPQVYTLPPIRELMTSNQVSLSCAVKGFYPSDIAVEWESNGQPENNYKTTPPVLDSDGSFFLVSKLTVDKSRWQQGNVFSCSVMHEALHNHYTQKSLSLSPGKSGSETPGTSESATPESGGGEVQLVESGGGLVQPGGSLRLSCAASGFNIHSSSIHWVRQAPGKGLEWVAATYSSFGSITYADSVKGRFTISADTSKNTAYLQMNSLRAEDTAVYYCARYHHPFGYALDYWGQGTLVTVSSASTKGPSVFPLAPSSKSTSGGTAALGCLVKDYFPEPVTVSWNSGALTSGVHTFPAVLQSSGLYSLSSVVTVPSSSLGTQTYICNVNHKPSNTKVDKKVEPKSCDKTHT
heavy 2: MNLLLILTFVAAAVAEFEVQLVESGGGLVQPGGSLRLSCAASGFNISYSSIHWVRQAPGKGLEWVASISPYYGYTYYADSVKGRFTISADTSKNTAYLQMNSLRAEDTAVYYCARSSYFPWFSAMDYWGQGTLVTVSSGGGGSDIQMTQSPSSLSASVGDRVTITCRASQSVSSAVAWYQQKPGKAPKLLIYSASSLYSGVPSRFSGSRSGTDFTLTISSLQPEDFATYYCQQYYWPITFGQGTKVEIKLEDKTHTKVEPKTSDKTHTCPPCPAPELLGGPSVFLFPPKPKDTLMISRTPEVTCVVVDVSHEDPEVKFNWYVDGVEVHNAKTKPREEQYNSTYRVVSVLTVLHQDWLNGKEYKCKVSNKALPAPIEKTISKAKGQPREPMVFDLPPSREEMTKNQVSLWCMVKGFYPSDIAVEWESNGQPENNYKTTPPVLDSDGSFFLYSKLTVDKSRWQQGNVFSCSVMHEALHNHYTQKSLSLSPGKSGSETPGTSESATPESGGGEVQLVESGGGLVQPGGSLRLSCAASGFNIHSSSIHWVRQAPGKGLEWVAATYSSFGSITYADSVKGRFTISADTSKNTAYLQMNSLRAEDTAVYYCARYHHPFGYALDYWGQGTLVTVSSASTKGPSVFPLAPSSKSTSGGTAALGCLVKDYFPEPVTVSWNSGALTSGVHTFPAVLQSSGLYSLSSVVTVPSSSLGTQTYICNVNHKPSNTKVDKKVEPKSCDKTHT
light: B3 light

molecular target: FZD1/2/4/5/7/8; assay: cell-based or functional assay

TOPFLASH % Wnt Maxima	TOPFLASH EC50	TOPFLASH Maximal Signal (% Wnt3a maxima) (% Wnt3a maxima)	Binder
63 % Wnt Maxima	0.3 nM		B1
52 % Wnt Maxima	0.3 nM		B2
57 % Wnt Maxima	0.3 nM		B3
49 % Wnt Maxima	0.7 nM	50	B4
